PMC10148881 (2023)
Where a chain is given by its changes, count along the chain named. Values joined by “and” are separate entries in the source; they are usually repeats but may differ in a detail not shown here. Equal entries are not always repeated. Where two headings read alike, the source gives them in different places. Ends that are not written are not given here.

T1: Pirh2 I107D (Homo sapiens)
T1 chain: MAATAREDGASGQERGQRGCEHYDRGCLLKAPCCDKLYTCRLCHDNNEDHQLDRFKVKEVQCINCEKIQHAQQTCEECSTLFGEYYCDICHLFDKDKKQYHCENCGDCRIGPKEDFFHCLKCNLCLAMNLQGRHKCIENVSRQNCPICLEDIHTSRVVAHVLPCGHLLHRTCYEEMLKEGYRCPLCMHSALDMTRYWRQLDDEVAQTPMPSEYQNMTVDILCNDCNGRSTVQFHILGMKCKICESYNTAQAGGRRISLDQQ

T2: Pirh2 with Ile110 substituted with a negatively charged residue (human, UniProt Q96PM5 1-261)
T2 sequence (Q96PM5 whole entry, looked up) 1: T1 chain with D107I
T2 sequence (Q96PM5 whole entry, looked up) 2: T1 chain with D107I

B1: Ala6/C-degron peptide with Ala-4 substituted with proline (peptide)
chain: YKTSPAAA
B2: Ala6/C-degron peptide with Ala-3 substituted with isoleucine (peptide)
chain: YKTSAAAIAA
B3: Ala6/C-degron peptide with Ala-2 substituted with isoleucine (peptide)
chain: YKTSAAAAIA
B4: YKTSAAPA (peptide)
chain: YKTSAAPA
B5: YKTSAAGA (peptide)
chain: YKTSAAGA
B6: YKTSASAA (peptide)
chain: YKTSASAA
B7: Ala6/C-degron peptide with Ala-4 substituted with serine (peptide)
chain: YKTSAASAAA
B8: Ala6/C-degron peptide with the threonine mutation of Ala-5 (peptide)
chain: YKTSATAAAA
B9: Ala6/C-degron peptide (sequence: YKTSAAAAAA) (peptide)
peptide: YKTSAAAAAA
modifications: not fully specified
B10: three-Ala peptide (peptide)
chain: YKTSAAA
B11: Ala6/C-degron peptide with the threonine mutation of Ala-3 (peptide)
chain: YKTSAAATAA
B12: Ala6/C-degron peptide with Ala-1 replaced with glycine (peptide)
chain: YKTSAAAAAG
B13: Ala6/C-degron peptide with the threonine mutation of Ala-6 (peptide)
chain: YKTSTAAAAA
B14: AAAAAA (peptide)
chain: AAAAAA
B15: YKTSAAVA (peptide)
chain: YKTSAAVA
B16: YKTSAAAA (peptide)
chain: YKTSAAAA
B17: YKTSAVAA (peptide)
chain: YKTSAVAA
B18: Ala6/C-degron peptide with Ala-3 substituted with lysine (peptide)
chain: YKTSAAAKAA
B19: YKTSAASA (peptide)
chain: YKTSAASA
B20: Ala6/C-degron peptide (sequence: YKTSAAAAAA) (peptide)
peptide: YKTSAAAAAA
B21: Ala6/C-degron peptide with Ala-3 substituted with proline (peptide)
chain: YKTSAAAPAA
B22: Pirh2 NTD + RING (residues 1–189) (domain or fragment)
chain: MAATAREDGASGQERGQRGCEHYDRGCLLKAPCCDKLYTCRLCHDNNEDHQLDRFKVKEVQCINCEKIQHAQQTCEECSTLFGEYYCDICHLFDKDKKQYHCENCGICRIGPKEDFFHCLKCNLCLAMNLQGRHKCIENVSRQNCPICLEDIHTSRVVAHVLPCGHLLHRTCYEEMLKEGYRCPLCMHS
B23: YKTSAGAA (peptide)
chain: YKTSAGAA

How the values were obtained:
Experiment in all cases: ITC
[1] = target: B22
[2] = target: B22
Pirh2 I107D = target: T1, Pirh2 I107D
[3] = target: B22
[4] = target: T2, Pirh2 with Ile110 substituted with a …
[5] = target: polyAla/C-degron peptide containing five Ala residues
[6] = target: polyAla/C-degron peptide containing four Ala residues
unnamed = target: unnamed

Binder | Kd [1] [nM] | also measured
B1 | 57000 | –
B2 | 2700 | Kd [2]: 1500 nM
B3 | 13000 | Kd [2]: 10000 nM
B4 | 26000 | –
B5 | 22000 | –
B6 | 3000 | –
B7 | 4500 | –
B8 | 500 | –
B9 | – | Kd (Pirh2 I107D): 9.1 µM
B10 | – | Kd [3]: > 100000 nM
B11 | 700 | –
B12 | 23000 | –
B13 | 500 | –
B14 | – | Kd [3]: 900 nM
B15 | 13000 | –
B16 | 800 | –
B17 | 1900 | –
B18 | – | Kd [2]: 2100 nM
B19 | 20000 | –
B20 | – | Kd [4]: 40 µM
B21 | 900 | Kd [2]: 500 nM
B22 | – | Kd [5]: 2500 nM; Kd [6]: 7.4 µM; Kd (unnamed): 8.6 µM and 12 µM
B23 | 2300 | –
